# Measurements: US20230117827A1, “COMPOSITION COMPRISING A FLUOROPHORE LABELLED UPAR-TARGETING PEPTIDE CONJUGATE” (FLUOGUIDE A/S, priority 2020, published 2023)
# Experiments:
# Type in all cases: physicochemical
# [1] = Solubilization of composition 1 judged by absorbance and emission spectra
# Procedure: A composition comprising the fluorophore labelled receptor-targeting peptide conjugate ICG-Glu-Glu-AE105 (called composition 1 below) is soluble in DMSO in concentrations up to 20 mg/ml with a peak spectral absorption at 800 nm similar to indocyanine green (ICG) currently used in the clinic for visual assessment of vessels, blood flow and related tissue perfusion, fig. A.
# An aqueous formulation of composition 1 of 1.0 mg/ml has been developed according to the present invention, using excipients suitable for pharmaceutical formulation development.
# A. Excitation was conducted at 775 nm.
# Further Explanation of the Figs. A-D A. Absorbance and emission spectrum of FG001 dissolved in DMSO and PBS at 1.0 mg/ml. Excitation wavelength: 775 nm. Analytical samples for absorbance measurement were further diluted 200-fold and 400-1000-fold for emission spectra. B. Absorbance spectrum of FG001 dissolved in 1) 10 mM sodium phosphate, 45 mg/ml mannitol, pH 7.4, 2) 10 mM sodium phosphate, 45 mg/ml mannitol, 1% Polysorbate 20, pH 7.4 and 3) PBS, 0.2 g/ml HBC. Analytical samples for absorbance measurement were further diluted 200-fold and 400-1000-fold for emission spectra C. […] Excitation wavelength: 775 nm. Analytical samples for absorbance measurement were further diluted 200-fold and 400-1000-fold for emission spectra
# [2] = Long term storage stability of lyophilizate, purity by RP-HPLC; conditions: for Purity, main peak following storage at 5° C. / Purity, main peak following storage at 25° C./60% RH / Purity, main peak following storage at 40° C./75% RH: 780 nm
# Procedure: (§1) The long term stability of composition 1 at a concentration of 1.0 mg/ml was evaluated as a lyophilizate in one formulation comprising 10 mM sodium phosphate, 26 mg/ml mannitol, 9.0 mg/ml glycine, 0.025% Polysorbate 20, pH 7.4 Composition 1 was weighed into the formulation buffer and pH was adjusted to 7.4 using sodium hydroxide or hydrochloric acid. The bulk formulation was sterile filtered through suitable sterile filters and filled into 6R vials. The vials were placed with stoppers in a lyophilizer and lyophilized using a standard program. Following lyophilization all vials were capped, visual inspected and stored protected from light at 5° C., 25° C./60% RH or 40° C./75% RH for up to 9 months
# (§2) At the selected timepoint, a vial is removed from the stability chamber for visual inspection of the lyophilizate and water content determination. Another vial is reconstituted with water for injection prior to analyzing the corresponding liquid formulation for purity, pH and visual appearance.
# RP-HPLC to detect purity of reconstituted composition 1: Mobile phase A was composed of purified water/acetonitrile (80/20 v/v) with 5 mM ammonium acetate and mobile phase B was composed of purified water/acetonitrile (10/90 v/v) with 5 mM ammonium acetate. A Waters XBridge BEH Peptide, 3.5 μm, 130Å, 4.6×150 mm column was used. Flow rate was set to 1.0 mL/min,detection was at a wavelength of 780 nm, the column running temperature was 45° C. The sample cooler temperature was set at 5° C. and the sample injection load was 10 μg.
# [3] = Long term storage stability, water content of lyophilizate by Karl Fisher titration
# Procedure: as §1, §2
# The water content of the lyophilizate was determined by Karl Fisher titration according to Ph. Eur. 2.5.32.
# [4] = Long term storage stability, visual inspection and pH; conditions: for pH: reconstituted
# Procedure: as §1, §2
# [5] = Example 4 lyophilizate, 0 months
# [6] = Example 4 lyophilizate, 1 months
# [7] = Example 4 lyophilizate, 3 months
# [8] = Example 4 lyophilizate, 6 months
# [9] = Example 4 lyophilizate, 9 months
# [10] = storage at 25° C./60% RH, 0 months
# [11] = storage at 25° C./60% RH, 1 months
# [12] = storage at 25° C./60% RH, 3 months
# [13] = storage at 25° C./60% RH, 6 months
# [14] = storage at 25° C./60% RH, 9 months
smiles,measurement,setting,value
"CC(C)C[C@H](NC(=O)[C@H](Cc1ccc(O)cc1)NC(=O)C(CCCNC(=N)N)NC(=O)C(CO)NC(=O)C(Cc1ccccc1)NC(=O)[C@H](CC1CCCCC1)NC(=O)C(CC(=O)O)NC(=O)C(CCC(=O)O)NC(=O)C(CCC(=O)O)NC(=O)CCCCCN1\C(=C/C=C/C=C/C=C/C2=[N+](CCCCS(=O)(=O)[O-])c3ccc4ccccc4c3C2(C)C)C(C)(C)c2c1ccc1ccccc21)C(=O)N[C@@H](Cc1c[nH]c2ccccc12)C(=O)N[C@@H](CO)C(=O)O (stereo partly drawn) [composition 1, ICG-Glu-Glu-AE105]",peak absorption,"[1]; 10 mM sodium phosphate, 45 mg/ml mannitol, pH 7.4",shifted towards the peak absorption at 800 nm
same,solubility,"[1]; DMSO, read-out: soluble in DMSO in concentrations",≤ 20 mg/mL
same,peak spectral absorption,[1]; in DMSO,800 nm
same,spectral absorption in the range from 700 nm to 825 nm,"[1]; phosphate buffer saline, 1.0 mg/ml",clear double peak
same,emission spectrum,"[1]; phosphate buffer saline, 1.0 mg/ml, excitation 775 nm",significantly lower fluorescent peak at 800 nm
same,solubility in phosphate buffer saline,[1]; tested concentration 1.0 mg/ml,not soluble
same,"Purity, main peak following storage at 5° C.","[2]; Example 4 lyophilizate (mannitol/glycine/0.025% Polysorbate 20), 0 months",96.6 area %
same,"Purity, main peak following storage at 25° C./60% RH",[2]; [5],96.6 area %
same,"Purity, main peak following storage at 40° C./75% RH",[2]; [5],96.6 area %
same,"Purity, main peak following storage at 5° C.",[2]; [6],96.2 area %
same,"Purity, main peak following storage at 25° C./60% RH",[2]; [6],96.2 area %
same,"Purity, main peak following storage at 40° C./75% RH",[2]; [6],96.0 area %
same,"Purity, main peak following storage at 5° C.",[2]; [7],96.5 area %
same,"Purity, main peak following storage at 25° C./60% RH",[2]; [7],96.6 area %
same,"Purity, main peak following storage at 40° C./75% RH",[2]; [7],95.9 area %
same,"Purity, main peak following storage at 5° C.",[2]; [8],96.3 area %
same,"Purity, main peak following storage at 25° C./60% RH",[2]; [8],95.6 area %
same,"Purity, main peak following storage at 40° C./75% RH",[2]; [8],93.9 area %
same,"Purity, main peak following storage at 5° C.",[2]; [9],96.2 area %
same,"Purity, main peak following storage at 25° C./60% RH",[2]; [9],96.2 area %
same,"time shown to be stable, judged by the purity determination","[2]; selected formulation, storage conditions 5° C. and 25° C./60% RH",up to 9 months
same,residual water content,[3]; following 9 months storage at 25° C./60% RH,around 2%
same,Residual water,"[3]; storage at 5° C., 0 months",1.0%
same,Residual water,"[3]; storage at 5° C., 1 months",1.2%
same,Residual water,"[3]; storage at 5° C., 3 months",1.8%
same,Residual water,"[3]; storage at 5° C., 6 months",1.7%
same,Residual water,"[3]; storage at 5° C., 9 months",1.6%
same,Residual water,[3]; [10],1.0%
same,Residual water,[3]; [11],1.8%
same,Residual water,[3]; [12],1.7%
same,Residual water,[3]; [13],1.7%
same,Residual water,[3]; [14],1.9%
same,pH,"[4]; storage at 5° C., 0 months",7.4
same,pH,"[4]; storage at 5° C., 1 months",7.3
same,pH,"[4]; storage at 5° C., 3 months",7.4
same,pH,"[4]; storage at 5° C., 6 months",7.3
same,pH,"[4]; storage at 5° C., 9 months",7.4
same,pH,[4]; [10],7.4
same,pH,[4]; [11],7.3
same,pH,[4]; [12],7.4
same,pH,[4]; [13],7.3
same,pH,[4]; [14],7.4
same,"pH, appearance of the lyophilizate and clarity of reconstituted liquid formulation",[4]; up to 9 months storage,remains unchaged
